What follows are proteins tested on O=C(O)C(=O)CC(O)C(=O)O (assay: purified protein). Conditions: racemic HOG, 100 mM TRIS pH 8.5, 37°C, aldol cleavage.
Assay type: biochemical, Homo sapiens

| Protein | Km | kcat | kcat/Km |
| --- | --- | --- | --- |
| human HOGA (hHOGA) (Homo sapiens; S77T) (protein, His-tag (WT, Y140F) cleavable by PreScission leaving GPH, 33,097 Da tag-free; S77, N78 and S198 mutants as MBP fusion, MBP cleaved; tetramer) ASGEGKKVDIAGIYPPVTTPFTATAEVDYGKLEENLHKLGTFPFRGFVVQGTNGEFPFLTSSERLEVVSRVRQAMPKNRLLLAGSGCESTQATVEMTVSMAQVGADAAMVVTPCYYRGRMSSAALIHHYTKVADLSPIPVVLYSVPANTGLDLPVDAVVTLSQHPNIVGMKDSGGDVTRIGLIVHKTRKQDFQVLAGSAGFLMASYALGAVGGVCALANVLGAQVCQLERLCCTGQWEDAQKLQHRLIEPNAAVTRRFGIPGLKKIMDWFGYYGGPCRAPLQELSPAEEEALRMDFTSNGWL | 58 ± 8 µM | 0.8 ± 0.1 s⁻¹ | 14000 ± 2000 M⁻¹ s⁻¹ |
| human HOGA (hHOGA) (Homo sapiens; S198T) (protein, His-tag (WT, Y140F) cleavable by PreScission leaving GPH, 33,097 Da tag-free; S77, N78 and S198 mutants as MBP fusion, MBP cleaved; tetramer) ASGEGKKVDIAGIYPPVTTPFTATAEVDYGKLEENLHKLGTFPFRGFVVQGSNGEFPFLTSSERLEVVSRVRQAMPKNRLLLAGSGCESTQATVEMTVSMAQVGADAAMVVTPCYYRGRMSSAALIHHYTKVADLSPIPVVLYSVPANTGLDLPVDAVVTLSQHPNIVGMKDTGGDVTRIGLIVHKTRKQDFQVLAGSAGFLMASYALGAVGGVCALANVLGAQVCQLERLCCTGQWEDAQKLQHRLIEPNAAVTRRFGIPGLKKIMDWFGYYGGPCRAPLQELSPAEEEALRMDFTSNGWL | 77 ± 5 µM | 7.8 ± 0.1 s⁻¹ | 101000 ± 7000 M⁻¹ s⁻¹ |
| human HOGA (hHOGA) (Homo sapiens; N78A) (protein, His-tag (WT, Y140F) cleavable by PreScission leaving GPH, 33,097 Da tag-free; S77, N78 and S198 mutants as MBP fusion, MBP cleaved; tetramer) ASGEGKKVDIAGIYPPVTTPFTATAEVDYGKLEENLHKLGTFPFRGFVVQGSAGEFPFLTSSERLEVVSRVRQAMPKNRLLLAGSGCESTQATVEMTVSMAQVGADAAMVVTPCYYRGRMSSAALIHHYTKVADLSPIPVVLYSVPANTGLDLPVDAVVTLSQHPNIVGMKDSGGDVTRIGLIVHKTRKQDFQVLAGSAGFLMASYALGAVGGVCALANVLGAQVCQLERLCCTGQWEDAQKLQHRLIEPNAAVTRRFGIPGLKKIMDWFGYYGGPCRAPLQELSPAEEEALRMDFTSNGWL | 66 ± 4 µM | 7.6 ± 0.1 s⁻¹ | 115000 ± 7000 M⁻¹ s⁻¹ |
| human HOGA (hHOGA) (Homo sapiens; N78T) (protein, His-tag (WT, Y140F) cleavable by PreScission leaving GPH, 33,097 Da tag-free; S77, N78 and S198 mutants as MBP fusion, MBP cleaved; tetramer) ASGEGKKVDIAGIYPPVTTPFTATAEVDYGKLEENLHKLGTFPFRGFVVQGSTGEFPFLTSSERLEVVSRVRQAMPKNRLLLAGSGCESTQATVEMTVSMAQVGADAAMVVTPCYYRGRMSSAALIHHYTKVADLSPIPVVLYSVPANTGLDLPVDAVVTLSQHPNIVGMKDSGGDVTRIGLIVHKTRKQDFQVLAGSAGFLMASYALGAVGGVCALANVLGAQVCQLERLCCTGQWEDAQKLQHRLIEPNAAVTRRFGIPGLKKIMDWFGYYGGPCRAPLQELSPAEEEALRMDFTSNGWL | 16 ± 1 µM | 4 ± 0.1 s⁻¹ | 250000 ± 16000 M⁻¹ s⁻¹ |
| human HOGA (hHOGA) (Homo sapiens; S77A) (protein, His-tag (WT, Y140F) cleavable by PreScission leaving GPH, 33,097 Da tag-free; S77, N78 and S198 mutants as MBP fusion, MBP cleaved; tetramer) ASGEGKKVDIAGIYPPVTTPFTATAEVDYGKLEENLHKLGTFPFRGFVVQGANGEFPFLTSSERLEVVSRVRQAMPKNRLLLAGSGCESTQATVEMTVSMAQVGADAAMVVTPCYYRGRMSSAALIHHYTKVADLSPIPVVLYSVPANTGLDLPVDAVVTLSQHPNIVGMKDSGGDVTRIGLIVHKTRKQDFQVLAGSAGFLMASYALGAVGGVCALANVLGAQVCQLERLCCTGQWEDAQKLQHRLIEPNAAVTRRFGIPGLKKIMDWFGYYGGPCRAPLQELSPAEEEALRMDFTSNGWL | 84 ± 5 µM | 2.5 ± 0.1 s⁻¹ | 30000 ± 2000 M⁻¹ s⁻¹ |
| human HOGA (hHOGA) (Homo sapiens; N78Q) (protein, His-tag (WT, Y140F) cleavable by PreScission leaving GPH, 33,097 Da tag-free; S77, N78 and S198 mutants as MBP fusion, MBP cleaved; tetramer) ASGEGKKVDIAGIYPPVTTPFTATAEVDYGKLEENLHKLGTFPFRGFVVQGSQGEFPFLTSSERLEVVSRVRQAMPKNRLLLAGSGCESTQATVEMTVSMAQVGADAAMVVTPCYYRGRMSSAALIHHYTKVADLSPIPVVLYSVPANTGLDLPVDAVVTLSQHPNIVGMKDSGGDVTRIGLIVHKTRKQDFQVLAGSAGFLMASYALGAVGGVCALANVLGAQVCQLERLCCTGQWEDAQKLQHRLIEPNAAVTRRFGIPGLKKIMDWFGYYGGPCRAPLQELSPAEEEALRMDFTSNGWL | 281 ± 14 µM | 6.2 ± 0.1 s⁻¹ | 22000 ± 1000 M⁻¹ s⁻¹ |
| human HOGA (hHOGA) (Homo sapiens; S77V) (protein, His-tag (WT, Y140F) cleavable by PreScission leaving GPH, 33,097 Da tag-free; S77, N78 and S198 mutants as MBP fusion, MBP cleaved; tetramer) ASGEGKKVDIAGIYPPVTTPFTATAEVDYGKLEENLHKLGTFPFRGFVVQGVNGEFPFLTSSERLEVVSRVRQAMPKNRLLLAGSGCESTQATVEMTVSMAQVGADAAMVVTPCYYRGRMSSAALIHHYTKVADLSPIPVVLYSVPANTGLDLPVDAVVTLSQHPNIVGMKDSGGDVTRIGLIVHKTRKQDFQVLAGSAGFLMASYALGAVGGVCALANVLGAQVCQLERLCCTGQWEDAQKLQHRLIEPNAAVTRRFGIPGLKKIMDWFGYYGGPCRAPLQELSPAEEEALRMDFTSNGWL | 82 ± 7 µM | 1.2 ± 0.1 s⁻¹ | 15000 ± 1000 M⁻¹ s⁻¹ |

— article PMC3188589, “Structural and Biochemical Studies of Human 4-hydroxy-2-oxoglutarate Aldolase: Implications for Hydroxyproline Metabolism in Primary Hyperoxaluria” (PLoS ONE, 2011)
